Test [1] concerns the target T1, mouse ZO-1(PDZ1) Arg28 Ala-substituted mutant (mouse, UniProt P39447 18-110, Arg28 Ala-substituted).
T1 construct: zonula occludens 1 (ZO-1), mouse, first PDZ domain, residues 18-110, with Arg28 changed to Ala; Made by mutagenesis of the whole expression plasmid of ZO-1(PDZ1); no cleavage of GST is described for the mutants; also called Arg28 mutation; source: purified with glutathione-Sepharose, dialyzed
T1 sequence (looked up): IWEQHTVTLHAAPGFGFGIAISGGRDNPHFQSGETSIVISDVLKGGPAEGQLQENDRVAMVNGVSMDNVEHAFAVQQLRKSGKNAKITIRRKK
The experiment in a line: SPR; BIACORE-3000; Trx-CLD3 peptide immobilized on a CM5 chip, PDZ domain as analyte (0 to 100 ug/mL), 20 uL/min; 10 mM HEPES pH 7.4, 150 mM NaCl, 3 mM EDTA, 0.005% Surfactant P20; KD by 'Affinity from steady-state'; no phytic acid. To be noted: both partners purified.

The target of test [2] is T2, GST-tagged mouse ZO-1(PDZ1) (residues 18–110) (mouse, UniProt P39447 18-110).
T2 construct: zonula occludens 1 (ZO-1), mouse, first PDZ domain, residues 18-110; The methods say that the GST fusion proteins were used for the SPR analysis; also called first PDZ domain of zonula occludens 1; wild-type; source: E. coli BL21 (DE3), purified (glutathione-Sepharose FF), dialyzed
T2 sequence (looked up): T1 sequence (looked up) with A11R
The description is as above. To be noted: both partners purified.

Changes are numbered by the printed parent chain.

B1: His6-tagged thioredoxin (Trx) fusion protein of mouse CLD-3 C-terminus (Trx-CLD3, residues 210–219) (domain or fragment, UniProt Q9Z0G9 210-219, looked up)
chain: GTAYDRKDYV
notes: claudin-3 (CLD-3), mouse, C-terminus, residues 210-219; also called Trx-CLD3 peptide; CLD-3 peptide; source: E. coli BL21 (DE3), purified (Ni2+-chelating-Sepharose), dialyzed
With B1, in test [1], the binding result is “binds”. Also, the dissociation constant (Kd) in test [2] worked out at 170 nM.

For the origin of these results see publication PMC6222848, “Spatial Overlap of Claudin- and Phosphatidylinositol Phosphate-Binding Sites on the First PDZ Domain of Zonula Occludens 1 Studied by NMR” (Molecules : A Journal of Synthetic Chemistry and Natural …, 2018).
